Experimental findings from patent US20230265179A1 (TWIST BIOSCIENCE, published 2023) are described below.

Test [1] addresses T1, IL1RL1 (UniProt Q01638 19-556, limits assumed).
T1 construct: whole, on cells; The flow cytometry used 'cytokine over-expressing Expi293 cells' against Expi293 parent cells
T1 sequence (looked up): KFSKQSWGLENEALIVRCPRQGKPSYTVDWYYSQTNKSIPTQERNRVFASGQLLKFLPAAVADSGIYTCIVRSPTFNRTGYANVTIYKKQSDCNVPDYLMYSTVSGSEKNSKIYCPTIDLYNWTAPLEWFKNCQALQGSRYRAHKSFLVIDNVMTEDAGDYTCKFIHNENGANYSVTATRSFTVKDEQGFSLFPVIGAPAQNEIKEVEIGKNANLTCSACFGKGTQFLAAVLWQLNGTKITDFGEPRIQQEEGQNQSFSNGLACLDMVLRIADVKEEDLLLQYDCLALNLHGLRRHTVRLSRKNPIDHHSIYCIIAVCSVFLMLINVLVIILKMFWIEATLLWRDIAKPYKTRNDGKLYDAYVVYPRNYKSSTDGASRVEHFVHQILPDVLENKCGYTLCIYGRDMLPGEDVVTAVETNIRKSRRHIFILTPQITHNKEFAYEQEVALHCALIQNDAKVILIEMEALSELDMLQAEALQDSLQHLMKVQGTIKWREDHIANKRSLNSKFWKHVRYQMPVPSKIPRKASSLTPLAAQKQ
Nature of the test: flow cytometry, 100 nM IgG on IL1RL1 over-expressing Expi293 cells; MFI over that of Expi293 parent cells. Background: Flow cytometry measures light scatter and fluorescence of single cells or particles in a stream.
Protocol: (§1) All incubations and washes were in buffer containing PBS+1% BSA. MFI Ratio is defined by the mean fluorescence intensity (MFI) of the cytokine over-expressing Expi293 cell over the Expi293 parent cell. […] EC50 was calculated in GraphPad Prism.

Test [2] concerns the target T2, IL1RL2 over-expressed on Expi293 cells (UniProt Q9HB29 20-575, limits assumed).
T2 construct: whole, on cells; Target of the flow cytometry assay; MFI ratio is over-expressing cells over parent cells
T2 sequence (looked up): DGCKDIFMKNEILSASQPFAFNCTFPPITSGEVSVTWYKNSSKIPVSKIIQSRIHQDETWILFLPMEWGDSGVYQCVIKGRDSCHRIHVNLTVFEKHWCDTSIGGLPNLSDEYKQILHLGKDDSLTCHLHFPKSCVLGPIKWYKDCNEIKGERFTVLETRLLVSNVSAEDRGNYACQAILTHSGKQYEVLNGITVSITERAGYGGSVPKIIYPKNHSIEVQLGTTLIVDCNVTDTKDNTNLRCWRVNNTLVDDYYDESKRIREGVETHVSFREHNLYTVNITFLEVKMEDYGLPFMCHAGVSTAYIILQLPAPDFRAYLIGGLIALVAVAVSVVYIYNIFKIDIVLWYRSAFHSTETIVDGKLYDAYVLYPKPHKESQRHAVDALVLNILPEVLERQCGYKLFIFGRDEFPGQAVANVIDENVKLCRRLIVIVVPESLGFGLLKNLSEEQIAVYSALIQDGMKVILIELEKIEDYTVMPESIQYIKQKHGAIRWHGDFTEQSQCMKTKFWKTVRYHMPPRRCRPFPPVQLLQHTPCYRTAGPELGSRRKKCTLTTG
The test can be described thus: flow cytometry titration on over-expressing Expi293 cells.
Protocol: as §1

Test [3] has as its target T3, IL1RL2 (UniProt Q9HB29 20-335, limits assumed).
T3 construct: Soluble analyte of the SPR runs
T3 sequence (looked up): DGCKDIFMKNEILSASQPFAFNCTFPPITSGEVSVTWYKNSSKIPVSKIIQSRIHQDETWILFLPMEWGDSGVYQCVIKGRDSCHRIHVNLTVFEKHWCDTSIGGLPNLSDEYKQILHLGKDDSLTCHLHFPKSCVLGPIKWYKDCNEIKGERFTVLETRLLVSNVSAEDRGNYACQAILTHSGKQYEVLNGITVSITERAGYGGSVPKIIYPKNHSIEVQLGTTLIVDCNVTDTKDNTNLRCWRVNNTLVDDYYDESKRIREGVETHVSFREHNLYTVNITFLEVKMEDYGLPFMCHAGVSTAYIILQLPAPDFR
Nature of the test: SPR (Carterra LSA), antibody immobilised, 1:1 model.
Protocol: SPR experiments were performed on a Carterra LSA SPR biosensor equipped with a HC30M chip at 25° C. in HBS-TE. Antibodies were diluted to 10 μg/mL and amine-coupled to the sensor chip by EDC/NHS activation, followed by ethanolamine HCl quenching. Increasing concentrations of analyte were flowed over the sensor chip in HBS-TE with 0.5 mg/mL BSA with 5-minute association and 15-minute dissociation. Following each injection cycle the surface was regenerated with 2× 30-second injections of IgG elution buffer (Thermo). Data were analyzed in Carterra's Kinetics Tool software with 1:1 binding model.

Test [4] has as its target T2, IL1RL2 over-expressed on Expi293 cells. The test can be described thus: flow cytometry, over-expressing Expi293 vs parent cells, 100 nM antibody.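 Also: ratio is mean fluorescence intensity on over-expressing Expi293 cells divided by that measured on parental Expi293 cells.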
Protocol: as §1

B1: IL1RL1-381 (antibody, V domains shown)
VH: EVQLLESGGGLVQPGGSLRLSCAASGFTSSNYAMTWVRQAPGKGLEWVSSIIGSGGGTYYADSVKGRFTISRDNSKNTLYLQMNSLRAEDTAVYYCARGIPRRKKGAGLFDYWGQGTLVTVSS
VL: DIQMTQSPSSLSASVGDRVTITCRASHSISSHLNWYQQKPGKAPKLLIYGASRLQRGVPSRFSGSGSGTDFTLTISSLQPEDFATYYCQQNYNTPFTFGGGTKVEIK
For the molecule B1, the “100 nM FACS (MFI Ratio)” value in test [1] was 0.85 MFI ratio.

B2: IL1RL2-22 (VHH)
VHH: EVQLVESGGGLVQPGGSLRLSCAASGRTFGSYAMGWFRQAPGKEREFVAAINWSGARTYYADSVKGRFTISADNSKNTAYLQMNSLKPEDTAVYYCAVSQPLNYYTYYDARRYDWGQGTLVTVSS
notes: VHH-Fc based on IgG2 Fc
Usually EC50 stands for the concentration that produces a half-maximal response. What is called Kd is a measure of binding affinity in units of concentration. A lower Kd goes with tighter binding. As usually defined, the koff is the rate constant with which the complex falls apart. Read a low koff as slow dissociation. The term kon denotes the second-order rate constant of association. In test [2], B2 had a 50% effective concentration (EC50) of 3.02 nM. In test [3], this molecule showed a Kd of 3.59 nM, a dissociation rate constant (koff) of 0.000126 s⁻¹ and an association rate constant (kon) of 35000 M⁻¹ s⁻¹. Further, the “100 nM FACS (MFI Ratio)” value in test [4] worked out at 15.4.

B3: IL1RL1-385 (antibody, V domains shown)
VH: EVQLLESGGGLVQPGGSLRLSCAASGFTFNTFAMSWVRQAPGKGLELVSAISGSGGNTYYVDSVKGRFTISRDNSKNTLYLQMNSLRAEDTAVYYCARLGSGSSSSIDYWGQGTLVTVSS
VL: DIQMTQSPSSLSASVGDRVTITCRASQYISTFLNWYQQKPGKAPKLLIYAASRLQDGVPSRFSGSGSGTDFTLTISSLQPEDFATYYCQQSYGSSWTFGGGTKVEIK
On to B3, for which, in test [1], the “100 nM FACS (MFI Ratio)” value came to 7.61 MFI ratio.

B4: IL1RL2-12 (VHH)
VHH: EVQLVESGGGLVQPGGSLRLSCAASGPMSSSAVMGWFRQAPGKEREFVAVVTRWSGARTVYADSVKGRFTISADNSKNTAYLQMNSLKPEDTAVYYCAVSQPLNYYTYYDPRRYDWGQGTLVTVSS
notes: VHH-Fc based on IgG2 Fc
B4 registered a concentration giving a half-maximal response (EC50) in test [2] of 0.528 nM. Moreover, in test [3], binding was characterised by a dissociation constant (Kd) of 12.1 nM, the koff was 0.000485 s⁻¹ and the association rate constant (kon) worked out at 40200 M⁻¹ s⁻¹. In test [4], the “100 nM FACS (MFI Ratio)” value came out at 33.8.

B5: IL1RL2-17 (VHH)
VHH: EVQLVESGGGLVQPGGSLRLSCAASGRTFSTYDMGWFRQAPGKERELVASITFGGDTNYADSVKGRFTISADNSKNTAYLQMNSLKPEDTAVYYCADVNGDWGQGTLVTVSS
notes: VHH-Fc based on IgG2 Fc
Regarding B5, the concentration giving a half-maximal response (EC50) in test [2] turned out to be 11.2 nM. In test [3], this molecule registered a Kd of 1.45 nM, an off-rate (koff) of 0.00024 s⁻¹ and a kon of 166000 M⁻¹ s⁻¹. Besides, the “100 nM FACS (MFI Ratio)” value in test [4] worked out at 15.6.

B6: IL1RL2-5 (VHH)
VHH: EVQLVESGGGLVQPGGSLRLSCAASGRTFDSYDMGWFRQAPGKERELVASITYLGRTNYADSVKGRFTISADNSKNTAYLQMNSLKPEDTAVYYCADVNGDWGQGTLVTVSS
notes: VHH-Fc based on IgG2 Fc
The molecule B6 returned an EC50 in test [2] of 13.4 nM. In test [3], the dissociation constant Kd was found to be 2.72 nM, the koff came out at 0.000343 s⁻¹ and the kon is 126000 M⁻¹ s⁻¹. In test [4], the “100 nM FACS (MFI Ratio)” value came to 13.9.

B7: IL1RL2-15 (VHH)
VHH: EVQLVESGGGLVQPGGSLRLSCAASGRTFSTYDMGWFRQAPGKEREFVAVINYRGSTTYADSVKGRFTISADNSKNTAYLQMNSLKPEDTAVYYCADVNGDWGQGTLVTVSS
notes: VHH-Fc based on IgG2 Fc
In turn, B7 showed an EC50 in test [2] of 0.622 nM. Also, in test [3], the Kd turned out to be 4.13 nM, the koff came to 0.000218 s⁻¹ and the kon was 52700 M⁻¹ s⁻¹. In addition, in test [4], the “100 nM FACS (MFI Ratio)” value was 14.4.

B8: IL1RL2-302 (antibody, V domains shown)
VH: EVQLLESGGGLVQPGGSLRLSCAASGFPLSSYAMSWVRQAPGKGLEWVSLISGSGVSTYYADSVKGRFTISRDNSKNTLYLQMNSLRAEDTAVYYCARGWGAAEEWGQGTLVTVSS
VL: DIQMTQSPSSLSASVGDRVTITCRASQRISNYLHWYQQKPGKAPKLLIYAASRLHSGVPSRFSGSGSGTDFTLTISSLQPEDFATYYCQQSHTIPYTFGQGTKVEIK
notes: IgG2
Regarding B8, a half-maximal effect in test [2] (EC50) was put at 1.1 nM. The “100 nM FACS (MFI Ratio)” value in test [4] was found to be 192.

B9: IL1RL1-377 (antibody, V domains shown)
VH: EVQLLESGGGLVRPGGSLRLSCAASGFTFRNFAMSWVRQAPGKGLEWVSSISGSGDTTYYADSVKGRFTISRDNSKNTLYLQMNSLRAEDTAVYYCARHKRGRVAVAFPMDVWGQGTLVTVSS
VL: DIQMTQSPSSLSASVGDRVTITCRASQNIGRYLNWYQQKPGKAPKLLIYGASTLQRGVPSRFSGSGSGTDFTLTISSLQPEDFATYYCQQSYSAPTFGGGTKVEIK
B9: the “100 nM FACS (MFI Ratio)” value in test [1] stood at 1.21 MFI ratio.

B10: IL1RL1-387 (antibody, V domains shown)
VH: EVQLLESGGGLVQPGGSLRLSCAASGFTFNRYAMNWVRQAPGKGLEWVSTISASGGRTYYADSVKGRFTISRDNSKNTLYLQMNSLRAEDTAVYYCARGSLRLDTWGQGTLVTVSS
VL: DIQMTQSPSSLSASVGDRVTITCRASQNIASYLNWYQQKPGKAPKLLIYGASRLQSGVPSRFSGSGSGTDFTLTISSLQPEDFATYYCQQSSTPRTFGGGTKVEIK
As to B10, in test [1], the “100 nM FACS (MFI Ratio)” value worked out at 1.06 MFI ratio.

B11: IL1RL1-375 (antibody, V domains shown)
VH: EVQLLESGGGLVQPGGSLRLSCAASGFAFSSYAMSWVRQAPGKGLELVSAISGSGDTSYYADSVKGRFTISRDNSKNTLYLQMNSLRAEDTAVYYCARVRRWSNFDYWGQGTLVTVSS
VL: DIQMTQSPSSLSASVGDRVTITCRASQSISRYLSWYQQKPGKAPKLLIYAGSKLQRGVPSRFSGSGSGTDFTLTISSLQPEDFATYYCQQTYSTPIAFGGGTKVEIK
With B11, the “100 nM FACS (MFI Ratio)” value in test [1] is 11.3 MFI ratio.

B12: IL1RL1-380 (antibody, V domains shown)
VH: EVQLLESGGGLVQPGGPLRLSCAASGFSFSKFAMSWVRQAPGKGLEWVSGISGSGGNTYYADSVKGRFTISRDNSKNTLYLQMNSLRAEDTAVYYCVKGSRGSYRSSTLGPFKHWGQGTLVTVSS
VL: DIQMTQSPSSLSASVGDRVTITCRTSQSISTYLNWYQQKPGKAPKLLIYAASRLQNGVPSRFSGSGSGTDFTLTISSLQPEDFATYYCQQSYSVPGTFGGGTKVEIK
Regarding B12, the “100 nM FACS (MFI Ratio)” value in test [1] was 0.6 MFI ratio.

B13: IL1RL2-35 (VHH)
VHH: EVQLVESGGGLVQPGGSLRLSCAASGRTFSTYDMGWFRQAPGKEREFVAAISWSGGSTNYADSVKGRFTISADNSKNTAYLQMNSLKPEDTAVYYCADVNGDWGQGTLVTVSS
notes: VHH-Fc based on IgG2 Fc
In turn, B13 gave a concentration for a half-maximal effect (EC50) in test [2] of 0.508 nM. In test [3], binding was characterised by a dissociation constant (Kd) of 4.74 nM, the off-rate constant (koff) was found to be 0.000593 s⁻¹ and the kon was 125000 M⁻¹ s⁻¹. Besides, the “100 nM FACS (MFI Ratio)” value in test [4] was found to be 15.6.

B14: IL1RL2-27 (VHH)
VHH: EVQLVESGGGLVQPGGSLRLSCAASGGRFSTYDMGWFRQAPGKEREFVASIVWIGGRTYYADSVKGRFTISADNSKNTAYLQMNSLKPEDTAVYYCADVNGDWGQGTLVTVSS
notes: VHH-Fc based on IgG2 Fc
Molecule B14 yielded a 50% effective concentration (EC50) in test [2] of 64.2 nM. Moreover, in test [3], binding was put at a Kd of 1.32 nM, the koff was determined as 0.000143 s⁻¹ and the kon came out at 108000 M⁻¹ s⁻¹. In test [4], the “100 nM FACS (MFI Ratio)” value was found to be 14.

B15: IL1RL2-20 (VHH)
VHH: EVQLVESGGGLVQPGGSLRLSCAASGRTGSTYDMGWFRQAPGKERELVAAISWRGGSTYYADSVKGRFTISADNSKNTAYLQMNSLKPEDTAVYYCADVNGDWGQGTLVTVSS
notes: VHH-Fc based on IgG2 Fc
Regarding B15, a half-maximal response in test [2] (EC50) required 9.03 nM. In test [3], this molecule returned a dissociation constant (Kd) of 3.28 nM, an off-rate (koff) of 0.000363 s⁻¹ and a kon of 111000 M⁻¹ s⁻¹. For the same molecule, the “100 nM FACS (MFI Ratio)” value in test [4] worked out at 11.6.
